Test results from IntAct's records for PubMed 29415205.

B1: Glycine--tRNA ligase (Homo sapiens), P41250 (parent)
chain: MPSPRPVLLRGARAALLLLLPPRLLARPSLLLRRSLSAASCPPISLPAAASRSSMDGAGAEEVLAPLRLAVRQQGDLVRKLKEDKAPQVDVDKAVAELKARKRVLEAKELALQPKDDIVDRAKMEDTLKRRFFYDQAFAIYGGVSGLYDFGPVGCALKNNIIQTWRQHFIQEEQILEIDCTMLTPEPVLKTSGHVDKFADFMVKDVKNGECFRADHLLKAHLQKLMSDKKCSVEKKSEMESVLAQLDNYGQQELADLFVNYNVKSPITGNDLSPPVSFNLMFKTFIGPGGNMPGYLRPETAQGIFLNFKRLLEFNQGKLPFAAAQIGNSFRNEISPRSGLIRVREFTMAEIEHFVDPSEKDHPKFQNVADLHLYLYSAKAQVSGQSARKMRLGDAVEQGVINNTVLGYFIGRIYLYLTKVGISPDKLRFRQHMENEMAHYACDCWDAESKTSYGWIEIVGCADRSCYDLSCHARATKVPLVAEKPLKEPKTVNVVQFEPSKGAIGKAYKKDAKLVMEYLAICDECYITEMEMLLNEKGEFTIETEGKTFQLTKDMINVKRFQKTLYVEEVVPNVIEPSFGLGRIMYTVFEHTFHVREGDEQRTFFSFPAVVAPFKCSVLPLSQNQEFMPFVKELSEALTRHGVSHKVDDSSGSIGRRYARTDEIGVAFGVTIDFDTVNKTPHTATLRDRDSMRQIRAEISELPSIVQDLANGNITWADVEARYPLFEGQETGKKETIEE

Variants of: B1
Details: with hdac6_human HDAC6, Q9UBN7
hdac6_human HDAC6, Q9UBN7, sequence (Q9UBN7 whole entry): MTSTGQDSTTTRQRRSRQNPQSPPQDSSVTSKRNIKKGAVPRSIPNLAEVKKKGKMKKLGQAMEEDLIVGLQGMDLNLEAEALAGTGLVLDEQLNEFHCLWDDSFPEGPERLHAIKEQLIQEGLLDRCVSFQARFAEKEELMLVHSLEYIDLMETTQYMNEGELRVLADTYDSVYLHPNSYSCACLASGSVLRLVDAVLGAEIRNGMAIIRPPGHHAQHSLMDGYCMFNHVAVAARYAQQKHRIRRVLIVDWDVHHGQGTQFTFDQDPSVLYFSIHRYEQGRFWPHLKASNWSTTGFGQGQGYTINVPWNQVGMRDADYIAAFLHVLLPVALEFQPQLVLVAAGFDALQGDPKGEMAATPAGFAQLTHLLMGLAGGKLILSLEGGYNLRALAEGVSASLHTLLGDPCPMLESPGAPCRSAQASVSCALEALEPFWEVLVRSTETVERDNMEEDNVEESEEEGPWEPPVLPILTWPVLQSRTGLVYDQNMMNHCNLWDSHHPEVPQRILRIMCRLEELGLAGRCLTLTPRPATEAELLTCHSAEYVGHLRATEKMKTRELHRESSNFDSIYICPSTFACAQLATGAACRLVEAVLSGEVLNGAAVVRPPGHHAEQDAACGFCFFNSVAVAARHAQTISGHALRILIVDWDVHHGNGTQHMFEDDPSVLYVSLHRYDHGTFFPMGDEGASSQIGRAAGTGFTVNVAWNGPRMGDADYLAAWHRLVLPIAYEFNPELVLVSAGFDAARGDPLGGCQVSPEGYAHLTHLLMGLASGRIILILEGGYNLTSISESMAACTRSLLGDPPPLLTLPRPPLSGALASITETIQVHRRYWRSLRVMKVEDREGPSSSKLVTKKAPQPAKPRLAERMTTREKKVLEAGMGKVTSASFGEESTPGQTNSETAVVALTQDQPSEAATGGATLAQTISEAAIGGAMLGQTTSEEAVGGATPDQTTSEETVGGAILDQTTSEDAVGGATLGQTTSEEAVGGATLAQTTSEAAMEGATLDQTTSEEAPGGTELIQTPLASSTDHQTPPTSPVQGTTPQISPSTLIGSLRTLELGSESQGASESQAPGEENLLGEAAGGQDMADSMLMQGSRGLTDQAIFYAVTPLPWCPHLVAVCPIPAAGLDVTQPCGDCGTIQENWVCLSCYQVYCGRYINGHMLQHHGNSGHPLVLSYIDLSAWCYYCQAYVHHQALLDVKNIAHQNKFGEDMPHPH

Row | effect of a mutation on the interaction | Variant
1 | with no effect | C211R
